According to patent publication EP2857035B1:

Key:
[1] = molecular target: HLA-A1 (human); assay: assembly assay, TAP-deficient cell lysate, W6/32 IP, IEF gel
[2] = molecular target: HLA-A3 (human); assay: as above
[3] = molecular target: HLA-A2 (human); assay: as above
[4] = molecular target: HLA-A2 (human); assay: assembly assay (HLA stabilisation), T2 cell lysate, IP, IEF gel

## C1, Influenza A, PB1 591-599 (peptide)
[1]
  C50: 0.8 µM

## Influenza A, nucleoprotein 265-273 (peptide)
[2]
  C50: 0.1 µM

## C1, HIV-1 pol476-484 (peptide)
[3]
  C50: 0.2 µM
[4]
  C50: 0.7 µM
